These are literature values, as cited in PMC9705454 (Clinical Drug Investigation, 2022).

For data set [1] the following is noted: metabolite slowly released from the subcutaneous depot.

Regarding insulin glargine, in data set [1], the “share of plasma exposure accounted for by the main active metabolite” value is given as over 90%.

As for teduglutide, the half-life in circulation entry is on record as “approximately 2 h”.
